# Data from patent US20220062372A1, “METHODS FOR TREATING DISEASE AND REDUCING DRUG-INDUCED LIVER INJURY IN PATIENT POPULATIONS” (Ten Peaks LLC, priority 2020, published 2022).
# Where no end group is shown, it is not given here.
# Legend:
# [1] = molecular target: T1, HLA-B*39:01 and β2-microglobulin (Homo sapiens, UniProt P01889, A182T/A93T/A95T/C349S/D138N/D201E/E176V/E187T/E204Q/K202T/Q94N/R155S/R180L/S121R/Y140F/Y91C); assay: Refolding of HLA complexes with synthetic peptides, G200 superdex chromatography (OD280); format: binding; conditions: for peptide binding and proper refolding of HLA-B*39:01 (peak in chromatogram): FIG. 2A-2D, FIG. 3; for binding to HLA-B*39:01 (results of the studies taken together): overall conclusion of Example 2, Tables 6 and 7 and FIGS. 2-4
# T1 construct: made in house; host or cells: E. coli
# Procedure: (§1) Refolding, characterization and purification of HLA complexes was performed as described (PMID: 12220628). Briefly, HLA-B*39:01 and β2-microglobulin were expressed in E. coli. Inclusion bodies were isolated, denatured in 8 M Urea and mixed with synthetic peptides derived from infliximab (Genscript) at a final concentration of 0.2 mg per ml protein, 6 M Urea, 20 mM Tris pH 8.0, 1 mM GSH, 10 mM GSSH for 24 hours, then dialyzed against 10 mM Tris pH 8.0 for 3 days. Samples concentrated to reduce the volume 10 fold, then loaded on a G200 superdex column calibrated with standards (http://www.bio-rad.com/webroot/web/pdf/1sr/literature/MSLIT-102E.pdf) in 10 mM Tris, 150 mM NaCl, at 0.75 ml per minute. OD280 was recorded for chromatographic analysis.
# (§2) Results of the study are provided in FIGS. 2-4 and in Tables 6 and 7. In Tables 6 and 7, the IC50 (nM) for each peptide binding to HLA-B*39:01, HLA-B*05:01, HLA-B*35:01, or HLA-B*57:01 are shown in nM. […] In each of FIG. 2A-2D, the dotted line arrow points to the peak (or lack of a peak, for FIG. 2D) indicating peptide binding and proper refolding. […] The dotted line arrow points to the peak (or lack of a peak) indicating peptide binding and proper refolding. […] FIGS. 5A and 5B show an exemplary crystal structure of infliximab.
# [2] = background description of the marketed drug; cited from earlier work
# [3] = system: other HLAs; assay: Peptide binding to other HLAs (overall conclusion of Example 2); set-up: species or system human
# Procedure: A study was conducted to identify interactions between peptides present on the infliximab antibody and HLA-B*39:01. Peptides corresponding to heavy and light chain sequences of infliximab (chain H and L in PDB code 4G3Y) were predicted to bind class I HLA molecules based on the Stabilized matrix method (SMM) implemented in Immune Epitope Database and Analysis Resource (IEDB). Peptides predicted to bind with estimated Kd values less than 0.5 μM were considered candidate binders for: HLA-B*39:01, HLA-B*15:01, HLA-B*35:01, and HLA-B*57:01.
# as §1, §2
# [4] = HLA analysis of infliximab-DILI cases vs. matched controls and reference populations; format: in vivo, human; conditions: for OR vs. Ref 2 / OR vs. Ref 1 / OR vs. Control / OR: DILI after infliximab; for OR vs. Control: 25 Caucasian cases vs 60 controls; for OR: cases vs controls
# Procedure: Samples from 25 Caucasians, 3 Africans, and 3 outliers subjects that had been treated with infliximab and had experienced DILI were obtained. These are referred to as “cases” here. These samples were compared to a set of 60 matched Caucasian and 6 matched African controls. […] The controls were matched for age, sex, ethnicity, and BMI where possible. Statistical analyses were performed to identify from these cases HLA alleles that are risk factors for the development of DILI following infliximab exposure. Significant alleles were determined using Fisher's Exact Test (FET) (p<0.05).
# As a secondary comparison, the HLA profiles of the 25 Caucasian cases were compared to reference populations available at www.allelefrequencies.net. For calculating population presence rates, reference list entries were found by searching for “Caucasoid” ethnic origin subjects of gold-standard studies involving ≥100 subjects for alleles of interest on allelefrequencies.net. Sample sizes for the references represent the reported number of subjects directly typed for a given locus (i.e. USA NMDP European Caucasian reports 1,242,890 subjects typed for HLA-B and DRB1, but only 395,676 subjects typed for HLA-C; see Table 3).
# In order to test for significant differences between the 31 Infliximab-DILI cases and the reference populations using Fisher's Exact Test (FET), counts of individuals carrying at least one copy of the allele in question were calculated one of two ways. If the population presence rate was available, the number of individuals was estimated by rounding the product of the population presence rate and the sample size for that HLA locus in that study. If no population presence rate was available, this number was estimated using the allele frequency rate and assuming Hardy-Weinberg equilibrium (HWE). That is, if the allele frequency is p, the number of individuals with the allele in question were calculated as [p^2+2*p*(1−p)]*Nsamples, where p^2+2*p*(1−p) represents the percentage of carriers if HWE is assumed, and N samples is the reference sample size for that locus.
# The data sets individually analyzed were: Caucasian typed and/or Caucasian imputed; African typed and/or African imputed; and All Ethnicities typed and/or All Ethnicities imputed. “Typed only” means that only subjects with directly typed HLA alleles were considered in the indicated analysis. “Imputed only” means that only the imputed alleles (i.e., the subject's HLA profile was determined using known proxies for HLA subtypes in their genetic sequence) for each subject were used in the indicated analysis. “Imputed+Typed” means that all subjects were considered; here, directly typed HLA alleles were used if available, otherwise, imputed alleles were used.
substance,measurement,setting,value
ACEVTHQGL [SEQ ID NO: 12],peptide binding and proper refolding of HLA-B*39:01 (peak in chromatogram),[1],lack of binding
same,binding to HLA-B*39:01 (results of the studies taken together),[1],does not bind
ACTEMRA: interleukin-6 (IL-6) receptor antagonist,hepatic adverse reactions reported in patients,[2],Serious cases of hepatic injury have been observed
"CQQSHSWPF [SEQ ID NO: 9, CQQSHSWPF]",binding to other HLAs (results of the studies taken together),[3],not to other HLAs
same,binding to HLA-B*39:01 (results of the studies taken together),[1],bind to HLA-B*39:01 at significant levels
Certolizumab: anti-TNF antibody used for the treatment of autoimmune diseases,hepatic adverse reactions reported in patients,[2],Elevated liver enzymes and hepatitis have been reported
ENTYVIO: integrin receptor antagonist for ulcerative colitis or Crohn's disease,hepatic adverse reactions reported in patients,[2],reports of elevations of transaminase and/or bilirubin
GAZYVA: CD20-directed cytolytic antibody,hepatic adverse reactions reported in patients,[2],Hepatic enzyme elevations have occurred in CLL patients
Guselkumab: IL-23 blocker,hepatic adverse reactions reported in patients,[2],Elevated liver enzymes have been reported
Infliximab: mouse-human chimeric monoclonal antibody that binds to human tumor necrosis factor (TNF),hepatic adverse reactions reported in patients,[2],"known to cause hepatotoxicity, and even severe hepatic reactions that can be fatal or necessitate a liver transplant"
same,OR vs. Ref 2,"[4]; B*39:01, 25 Caucasian cases vs England Northwest",13.72
same,OR vs. Ref 1,"[4]; B*39:01, 25 Caucasian cases vs USA NMDP European Caucasian",8.33
same,OR vs. Ref 2,"[4]; C*12:03, 25 Caucasian cases vs UK Pop 3",4.56
same,OR vs. Ref 1,"[4]; C*12:03, 25 Caucasian cases vs USA NMDP European Caucasian",3.02
same,OR vs. Control,[4]; DQA1*3:03,18.82
same,OR vs. Ref 2,"[4]; DQA1*3:03, 25 Caucasian cases vs Netherlands pop 2",0.87
same,OR vs. Ref 1,"[4]; DQA1*3:03, 25 Caucasian cases vs USA Caucasian Bethesda",0.92
same,OR vs. Control,[4]; DQB1*02:01,4.93
same,OR vs. Ref 2,"[4]; DQB1*02:01, 25 Caucasian cases vs USA Philadelphia Caucasian",3.57
same,OR vs. Ref 1,"[4]; DQB1*02:01, 25 Caucasian cases vs USA San Antonio Caucasian",2.54
same,OR vs. Control,[4]; DRB1*03:01,4.24
same,OR vs. Ref 1,"[4]; DRB1*03:01, 25 Caucasian cases vs USA NMDP European Caucasian",2.25
same,OR vs. Ref 2,"[4]; DRB1*03:01, 25 Caucasian cases vs USA Philadelphia Caucasian",3.57
same,OR,"[4]; HLA-A*02:01, African imputed + typed",91.00
same,OR,"[4]; HLA-B*39:01, Caucasian imputed + typed",25.33
same,OR,"[4]; HLA-C*07:01, All ethnicities imputed + typed",2.77
same,OR,"[4]; HLA-C*12:03, Caucasian imputed + typed",5.85
same,OR,"[4]; HLA-DPB1*04:02, African imputed + typed",25.67
same,OR,"[4]; HLA-DQA1*03:01, All ethnicities imputed + typed",0.28
same,OR,"[4]; HLA-DQA1*03:03, All ethnicities imputed + typed",16.33
same,OR,"[4]; HLA-DQB1*02:01, All ethnicities imputed + typed",5.21
same,OR,"[4]; HLA-DRB*03:01, All ethnicities imputed + typed",4.50
same,risk of DILI following infliximab administration in subjects with HLA-B*39:01,[4]; in words,associated with a higher risk of DILI
"LQSSGLYSL [SEQ ID NO: 10, LQSSGLYSL]",binding to other HLAs (results of the studies taken together),[3],not to other HLAs
same,binding to HLA-B*39:01 (results of the studies taken together),[1],bind to HLA-B*39:01 at significant levels
"STSGGTAAL [SEQ ID NO: 11, infliximab heavy chain peptide]",binding to other HLAs (results of the studies taken together),[3],not to other HLAs
same,binding to HLA-B*39:01 (results of the studies taken together),[1],bind to HLA-B*39:01 at significant levels
"STYSLSSTL [SEQ ID NO: 7, infliximab light chain peptide]",binding to other HLAs (results of the studies taken together),[3],not to other HLAs
same,binding to HLA-B*39:01 (results of the studies taken together),[1],bind to HLA-B*39:01 at significant levels
"THQGLSSPV [SEQ ID NO: 1, THQGLSSPV]",binding to other HLAs (results of the studies taken together),[3],not to other HLAs
same,peptide binding and proper refolding of HLA-B*39:01 (peak in chromatogram),[1],binding
same,binding to HLA-B*39:01 (results of the studies taken together),[1],bind to HLA-B*39:01 at significant levels
"TKGPSVFPL [SEQ ID NO: 2, TKGPSVFPL]",binding to other HLAs (results of the studies taken together),[3],not to other HLAs
same,peptide binding and proper refolding of HLA-B*39:01 (peak in chromatogram),[1],binding
same,binding to HLA-B*39:01 (results of the studies taken together),[1],bind to HLA-B*39:01 at significant levels
"TQSPAILSV [SEQ ID NO: 6, TQSPAILSV]",binding to other HLAs (results of the studies taken together),[3],not to other HLAs
same,binding to HLA-B*39:01 (results of the studies taken together),[1],bind to HLA-B*39:01 at significant levels
TYSABRI: integrin receptor antagonist indicated for multiple sclerosis and Crohn's disease,hepatic adverse reactions reported in patients,[2],"Significant liver injury, including liver failure requiring transplant, has occurred in patients"
"VQWKVDNAL [SEQ ID NO: 8, VQWKVDNAL]",binding to other HLAs (results of the studies taken together),[3],not to other HLAs
same,binding to HLA-B*39:01 (results of the studies taken together),[1],bind to HLA-B*39:01 at significant levels
"YSLSSTLTL [SEQ ID NO: 5, YSLSSTLTL]",binding to other HLAs (results of the studies taken together),[3],not to other HLAs
same,binding to HLA-B*39:01 (results of the studies taken together),[1],bind to HLA-B*39:01 at significant levels
ZINBRYTA: CD25 (IL-2 receptor)-specific antibody used to treat multiple sclerosis,hepatic adverse reactions reported in patients,[2],"can cause severe liver injury, including autoimmune hepatitis and liver failure"
golimumab: TNF blocker,hepatic adverse reactions reported in patients,[2],reports of severe hepatic reactions including acute liver failure
